Drawing on article PMC7265326, this text covers photobleaching steps per particle and stoichiometry N for one substance.

The test has as its target PKD2-mNeonGreen (PKD2-mNG) in cilia (Chlamydomonas). The experiment in a line: stepwise photobleaching.

As usually defined, the stoichiometry N is a count of units in the complex or per binding partner.

As to “PKD2-mNeonGreen (PKD2-mNG) in cilia (domain or fragment)”, the photobleaching steps per particle was 2.8 steps and the stoichiometry N was above 3.
